From US6677130

Target: T1, GST-ATF2 substrate, P15336
T1 chain: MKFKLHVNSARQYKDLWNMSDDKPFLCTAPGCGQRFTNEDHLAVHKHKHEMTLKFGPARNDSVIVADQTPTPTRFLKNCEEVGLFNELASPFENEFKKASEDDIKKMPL

B1: epitope-tagged p38-2 (3xHA-p38-2) (protein)
chain: MSGPRAGFYRQELNKTVWEVPQRLQGLRPVGSGAYGSVCSAYDARLRQKVAVKKLSRPFQSLIHARRTYRELRLLKHLKHENVIGLLDVFTPATSLEDFSEVYLVTTLMGADLNNIVKCQALSDEHVQFLVYQLLRGLKYIHSAGIIHRDLKPSNVAVNEDCELRILDFGLARQADEEMTGYVATRWYRAPEIMLNWMHYNQTVDIWSVGCIMAELLQGKALFPGSDYIDQLKRIMEVVGTPSPEVLAKISSEHARTYIQSLPPMPQKDLSSIFRGANPLAIDLLGRMLVLDSDQRVSAAEALAHAYFSQYHDPEDEPEAEPYDEGVEAKERTLEEWKELTYQEVLSFKPPEPPKPPGSLEIEQ
phosphorylation of GST-ATF2 by immunoprecipitated HA-p38-2 ([gamma-32P]ATP, SDS-PAGE, autoradiography): the inducible phosphorylation of ATF2 depends on a kinase cascade comprised of MEK6 and p38-2
